Measurements taken from patent publication US10233249B2, “Antibodies and methods for treating estrogen receptor-associated diseases” (BEIJING SHENOGEN PHARMA GROUP LTD., priority 2013, dated 2019).
“Also recorded” adds a separate entry of the source.

How the values were obtained:
[1] = molecular target: T1, stable 3T3 cell lines induced to express human ER-α36 protein (Homo sapiens, UniProt P03372, I452L); assay: FACS analysis of binding to inducible 3T3 cell lines; settings: mouse IgG2b isotype control
T1 construct: expressed in transfected cells
T1 sequence (P03372 1-310 isoform P03372-4 I279L): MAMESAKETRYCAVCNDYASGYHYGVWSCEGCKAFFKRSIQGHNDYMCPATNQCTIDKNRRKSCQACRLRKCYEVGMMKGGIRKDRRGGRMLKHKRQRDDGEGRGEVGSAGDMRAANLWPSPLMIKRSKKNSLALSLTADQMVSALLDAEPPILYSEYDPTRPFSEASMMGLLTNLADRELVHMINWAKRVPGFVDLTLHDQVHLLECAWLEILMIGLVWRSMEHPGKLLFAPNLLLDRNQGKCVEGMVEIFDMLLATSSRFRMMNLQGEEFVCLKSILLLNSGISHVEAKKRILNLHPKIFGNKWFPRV

[2] = molecular target: T2, ER-α36 protein in human tumor tissues (Homo sapiens, UniProt P03372); assay: Immunohistochemistry (IHC) of human tissue samples; settings: paraffin tissue of breast cancer patients
T2 construct: from tissue; host or cells: paraffin sections of breast cancer patients' tissue
T2 sequence (P03372 1-310 isoform P03372-4): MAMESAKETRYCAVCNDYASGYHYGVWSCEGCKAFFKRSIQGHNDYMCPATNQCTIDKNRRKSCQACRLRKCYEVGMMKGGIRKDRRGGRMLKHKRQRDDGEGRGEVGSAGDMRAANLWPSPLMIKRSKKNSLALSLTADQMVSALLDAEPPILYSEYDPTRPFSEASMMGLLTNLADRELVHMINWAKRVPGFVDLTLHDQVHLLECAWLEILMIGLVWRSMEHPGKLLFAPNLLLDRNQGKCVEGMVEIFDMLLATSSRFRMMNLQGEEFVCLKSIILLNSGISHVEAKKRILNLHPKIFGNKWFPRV
Description: Immunohistochemistry (IHC) assay was used to evaluate the ability of utilizing a specific antibody like SNGmB1 to better detect the presence of ER-α36 in human tissue samples. 4 μm thick paraffin tissue blocks of breast cancer patients were de-paraffinized by immersing in the xylene for twenty minutes twice, followed by rehydrating sequentially in 99%, 90%, 85%, 75%, 50% ethanol for 5 minutes each. The tissue sections were then washed three times with PBS. Antigen retrieval was then performed by heating in 95° C. citrate (pH 6.0) buffer for 15 minutes in microwave. Once cooled to room temperature, the sections were then washed with PBS three times, and incubated with 3% hydrogen peroxide for 20 minutes at room temperature, followed by washing with PBS. […] Upon washing with PBS five times, pre-diluted secondary antibody (ZSGB-Bio, Cat# PV-6000) was added and incubated for 20 minutes at room temperature. The sections were then washed with PBS and incubated with DAB solution for 2-5 minutes, followed by rinsing in distilled water for 5-10 minutes. The sections were then counter-stained in hematoxylin (ZSGB-BIO, Cat# ZLI-9609), followed by rinsing sequentially in 50%, 75%, 85%, 90% and 99% A ethanol to dehydrate. The sections were then cleared in xylene and sealed with neutral balsam before evaluated with microscope.

[3] = system: BCAP37 breast cancer xenograft; assay: BCAP37 breast cancer xenograft model; assay type: in vivo; settings: NOD-SCID mice, 1.25, 5 and 20 mg/kg SNGmB1, 3 mg/kg Herceptin, 17 days
Description: The ability of anti-ER-α36 antibody in inhibiting human tumor cell growth in Xenograft model was assessed using BCAP37 breast cancer model. […] The cells were implanted into NOD-SCID mice. […] After 17 days of treatment, the tumors were excised, and both tumor weight and volume were measured.

[4] = molecular target: T3, ER-α36 expressed on cell surfaces of SKBR3 cells (Homo sapiens, UniProt P03372); assay: FACS analysis of binding to cell surface ER-α36; settings: mouse IgG2b isotype control
T3 construct: endogenous in cells; host or cells: K562, MCF7, SKBR3, MHCC97H
T3 sequence (P03372 1-310 isoform P03372-4): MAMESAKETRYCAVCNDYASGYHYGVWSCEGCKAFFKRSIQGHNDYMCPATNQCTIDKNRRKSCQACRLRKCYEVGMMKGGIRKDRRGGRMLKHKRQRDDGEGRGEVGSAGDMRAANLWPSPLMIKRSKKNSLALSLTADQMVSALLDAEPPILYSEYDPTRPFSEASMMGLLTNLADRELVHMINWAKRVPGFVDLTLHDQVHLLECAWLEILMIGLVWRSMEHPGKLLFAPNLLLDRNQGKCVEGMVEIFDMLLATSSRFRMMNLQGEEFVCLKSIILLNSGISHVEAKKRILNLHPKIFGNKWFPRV
Description: (§1) Also examined were the binding of SNGmB1 to a series of human cancer cell lines including K-562 cell, a cell line derived from chronic myeloid leukemia patient; MCF7: a breast cancer cell line expressing both ER-α66 and ER-α36; SKBR3 (ATCC): a breast cancer cell line expressing high levels of HER2; and MHCC97H (ATCC): a highly metastatic hepatocellular carcinoma cell line.
(§2) These cell lines (K562, MCF7, SKBR3, MHCC97H) were cultured in their respective medium to 90% confluence and then the cells were washed with PBS, followed by pretreatment with 0.5 mM EDTA (adherent cell lines) to facilitate removal from substrate. The cells are then collected and centrifuged at 2500 rpm for 5 minutes at 4° C. After counting the cell number, the cells were then resuspended in the block buffer (10% normal goat serum, Invitrogen) to a final concentration of 5-10×10^6 cells/ml, and 100 μl of cells (5×10^5) were transferred to a 1.5 ml EP tube for staining. All those tubes (cells in block buffer) were then laid in a revolver (Grant) for 30 minutes at 4° C. After that the cells were centrifuged at 2500 rpm for 5 minutes at 4° C., the supernatant was discarded, 100 μl of the primary antibody was then added to (1-30 μg/ml final concentration, SNGmB1 or mouse IgG2b isotope control) and incubated in a revolver at 4° C. for 1 hr. The cells were then collected by centrifugation at 2500 rpm for 5 minutes at 4° C. and washed 2 times with PBS solution. The goat anti mouse IgG (H+L) FITC secondary antibody (Invitrogen) were then added at a dilution range of 1:400-800 followed by incubation in a revolver at 4° C. for 1 hr and kept in dark. Following this incubation, free antibody was the removed by washing the cells twice with PBS and the cells were then fixed in 1% paraformaldehyde at room temperature for 10 min and before resuspending the cells in 200-400 μl PBS with 5 μl 7-AAD (BD Biosciences) added for final flow cytometric analysis.
(§3) In FIG. 5A, the “Geom. Mean” refers to Geometric mean fluorescence intensity. […] The cell line was incubated with the SNGmB1 antibody and the binding was tested, according to the similar procedure described above. Mouse IgG2b was used as isotype control.

[5] = molecular target: T4, ER-α36 expressed on cell surfaces of MHCC97H cells (Homo sapiens, UniProt P03372); assay: FACS analysis of binding to cell surface ER-α36; settings: mouse IgG2b isotype control
T4 construct: endogenous in cells; host or cells: K562, MCF7, SKBR3, MHCC97H
T4 sequence (P03372 1-310 isoform P03372-4): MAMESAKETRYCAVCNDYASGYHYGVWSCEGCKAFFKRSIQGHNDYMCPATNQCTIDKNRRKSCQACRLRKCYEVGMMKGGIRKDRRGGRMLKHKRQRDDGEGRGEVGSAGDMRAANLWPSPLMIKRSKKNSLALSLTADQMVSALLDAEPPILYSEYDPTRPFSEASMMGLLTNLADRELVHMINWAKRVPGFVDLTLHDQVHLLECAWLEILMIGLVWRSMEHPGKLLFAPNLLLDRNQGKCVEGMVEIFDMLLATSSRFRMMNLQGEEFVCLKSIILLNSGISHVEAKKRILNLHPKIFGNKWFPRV
Description: as §1, §2, §3

[6] = molecular target: T5, ER-α36 expressed on cell surfaces of MCF7 cells (Homo sapiens, UniProt P03372); assay: FACS analysis of binding to cell surface ER-α36; settings: mouse IgG2b isotype control
T5 construct: endogenous in cells; host or cells: K562, MCF7, SKBR3, MHCC97H
T5 sequence (P03372 1-310 isoform P03372-4): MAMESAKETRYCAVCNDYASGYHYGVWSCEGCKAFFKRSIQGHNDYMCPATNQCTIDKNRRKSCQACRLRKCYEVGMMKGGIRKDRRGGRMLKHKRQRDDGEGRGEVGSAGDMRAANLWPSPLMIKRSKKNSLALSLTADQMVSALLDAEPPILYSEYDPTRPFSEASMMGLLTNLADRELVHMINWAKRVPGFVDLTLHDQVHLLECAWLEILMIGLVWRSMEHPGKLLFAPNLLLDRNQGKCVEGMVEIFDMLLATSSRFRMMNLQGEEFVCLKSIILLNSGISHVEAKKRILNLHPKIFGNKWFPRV
Description: as §1, §2, §3

[7] = molecular target: T6, ER-α36 expressed on cell surfaces of K562 cells (Homo sapiens, UniProt P03372); assay: FACS analysis of binding to cell surface ER-α36; settings: 100, 20, 4, 0.8, 0.16, 0.032 μg/ml; mouse IgG2b isotype control
T6 construct: endogenous in cells; host or cells: K562, MCF7, SKBR3, MHCC97H
T6 sequence (P03372 1-310 isoform P03372-4): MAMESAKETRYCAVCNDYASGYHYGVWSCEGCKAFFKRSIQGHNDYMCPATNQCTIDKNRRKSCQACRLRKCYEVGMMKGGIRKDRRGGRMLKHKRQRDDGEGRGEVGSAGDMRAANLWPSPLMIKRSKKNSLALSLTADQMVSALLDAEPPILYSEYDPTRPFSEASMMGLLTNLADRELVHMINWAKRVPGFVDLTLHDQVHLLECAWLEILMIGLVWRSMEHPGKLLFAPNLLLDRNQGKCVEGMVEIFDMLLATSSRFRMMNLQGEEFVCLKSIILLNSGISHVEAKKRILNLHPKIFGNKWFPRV
Description: as §1, §2, §3

ER-α36 = molecular target: T7, ER-α36 (Homo sapiens, UniProt P03372); assay: Biacore binding affinity of chimeric and humanized antibodies (Example 9)
T7 sequence (P03372 284-310 isoform P03372-4): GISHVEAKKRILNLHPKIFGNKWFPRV
Description: The humanized antibodies were purified and characterized using ELISA and Biacore for binding analysis.
The humanized antibodies were tested for their binding affinity to ER-α36.

B1: SNGmB1: mouse monoclonal anti-ER-α36 antibody (mIgG2b), light chain SEQ ID NO: 16, heavy chain SEQ ID NO: 18 (antibody, listed as Mus musculus)
heavy: QAYLQQSGAELVRPGASVKMSCKASGYTFTSHNMHWIKQTPRQGLEWIGAIHPVNGDTAYNQKFKGKATLTVDKSSSTAYLQLSSLTSEESAVYFCAREGYGSVDYWGQGTTLTVSSAKTTPPSVYPLAPGCGDTTGSSVTLGCLVKGYFPESVTVTWNSGSLSSSVHTFPALLQSGLYTMSSSVTVPSSTWPSQTVTCSVAHPASSTTVDKKLEPSGPISTINPCPPCKECHKCPAPNLEGGPSVFIFPPNIKDVLMISLTPKVTCVVVDVSEDDPDVQISWFVNNVEVHTAQTQTHREDYNSTIRVVSTLPIQHQDWMSGKEFKCKVNNKDLPSPIERTISKIKGLVRAPQVYILPPPAEQLSRKDVSLTCLVVGFNPGDISVEWTSNGHTEENYKDTAPVLDSDGSYFIYSKLNMKTSKWEKTDSFSCNVRHEGLKNYYLKKTISRSPGK
light: ETTVTQSPASLSMTIGEKVTIRCITSTDIDDDMNWYRKKPGQPPKLLISEGNTLRPGVPSRFSSSGYGTDFVFTIENMLSEDVADYYCLQSDNLPLTFGAGTKLELKRADAAPTVSIFPPSSEQLTSGGASVVCFLNNFYPKDINVKWKIDGSERQNGVLNSWTDQDSKDSTYSMSSTLTLTKDEYERHNSYTCEATHKTSTSPIVKSFNRNEC
binding to 3T3 cell line induced to express human ER-α36 (FACS) [1]: specifically bound | detection of ER-α36 protein expression in human tumor tissues [2]: detected both membrane bound and cytoplasmic expression | inhibition of tumor growth [3]: inhibit tumor growth in a dose-dependent manner; also recorded: inhibited tumor cell growth in a does-dependent manner | binding to SKBR3 cells (FACS) [4]: specific binding | binding to MHCC97H cells (FACS) [5]: specific binding | binding to MCF7 cells (FACS) [6]: specific binding | binding to K562 cells (FACS) [7]: dose-dependent binding | Ka (ER-α36; listed as SNGmB1-20110709(IgG2b)): 2.12e+06 M⁻¹ s⁻¹ | Ka (ER-α36; listed as SNGmB1-20111117(IgG2b)): 1.76e+06 M⁻¹ s⁻¹
